Values of other authors in paper PMC3562316.

Target: IGF1R (Homo sapiens) (UniProt P08069)

Kd: 0.2 nM
Substance: IGF-2 (from UniProt P01344)
